Here are results for five molecules from PMC6616311, “Reconstitution of Microtubule Nucleation In Vitro Reveals Novel Roles for Mzt1” (Current Biology, 2019).

To fix the notation:
B5: Alp4 (untagged) (natural protein, S. pombe, UniProt Q9Y705 1-784, looked up)
chain: MVRSISSVLAKEESENGSPIPALEEGSVYHVSLKSEGVSPFSDRIQLNYLYDGKTFSDPSNLNIHQQEACLINELLNAFMGMEGVFVHLQDMKASSEFETIIMPPSFYILPGFDLGIKDIASEMLEMGSHYLSITAFIESRSHFEYGFVNHALCAALRKFVMDYVVLIMQCENQSRIDPNFSLQTLRLYTLPTSRSLRQVYLILRDLLLSMEKNASSSDDLGLSNIDDLLEQLNEGNDISHVVNATRSKKKVCKGGQVISFLTESLTKYAGDPVARKILTYLLREASRPYTKMLNEWIHLGLVNDPYDEFMIKIHKGITSMQLDEDYTDEYWEKRYVIREDQVPPQLLDLQNKVLFAGKYLNVVLECRKGVNNLASLNAKDDTQNQLLWPSTFDDDNFTLNIMNAYVYANESLLQLLQSSQSLYAHLYSLKHYFFLDQSDFFTTFLDNAQHELRKPAKYISITKLQSQLDLALRQPGTITATDPHKEYVTVEVNQTSLIDWLMHIVSISGLEEGTSSQGNEVWNESITKQADVGNETRNFESEHNRSTQGTSKVGSDKDINGFETMQLCYKVPFPLSLILSRKAIIRYQLLFRYFLLLRHVEMQLENSWVQHSKNSAWRLNSSNAKIEQWKRNSWLLRTRMLSFVQKIIYYTTSEVIETHWGKFMGELENARTVDNLMQEHIDFLDTCLKECMLTNSRLLKVQSKLLNTCAMFASYTSTFTRSLYLLENSEESFDEGRMDKMEEILRRYEDSFSRHLKSLVNACNYFASTETAALLSLVMKLTG
notes: Alp4, S. pombe γ-TuSC protein, homolog of human GCP2; also called homolog of human GCP2; source: High Five insect cells (MultiBac baculovirus), coexpressed with partners; in lysate, and co-purified in complexes

In data set [1] the target is T1, Alp6-MBP (S. pombe, UniProt Q9USQ2 1-832).
T1 construct: Alp6, S. pombe γ-TuSC protein, homolog of human GCP3; also called Alp6 (homolog of human GCP3) with C-terminal MBP-6xHis tag; tagged subunit of γ-TuSC^Alp6-MBP; source: High Five insect cells (MultiBac baculovirus), coexpressed with partners; in lysate, and purified on amylose; not shown: MBP, C-terminal, kept; 6xHis, C-terminal, kept
T1 sequence (looked up): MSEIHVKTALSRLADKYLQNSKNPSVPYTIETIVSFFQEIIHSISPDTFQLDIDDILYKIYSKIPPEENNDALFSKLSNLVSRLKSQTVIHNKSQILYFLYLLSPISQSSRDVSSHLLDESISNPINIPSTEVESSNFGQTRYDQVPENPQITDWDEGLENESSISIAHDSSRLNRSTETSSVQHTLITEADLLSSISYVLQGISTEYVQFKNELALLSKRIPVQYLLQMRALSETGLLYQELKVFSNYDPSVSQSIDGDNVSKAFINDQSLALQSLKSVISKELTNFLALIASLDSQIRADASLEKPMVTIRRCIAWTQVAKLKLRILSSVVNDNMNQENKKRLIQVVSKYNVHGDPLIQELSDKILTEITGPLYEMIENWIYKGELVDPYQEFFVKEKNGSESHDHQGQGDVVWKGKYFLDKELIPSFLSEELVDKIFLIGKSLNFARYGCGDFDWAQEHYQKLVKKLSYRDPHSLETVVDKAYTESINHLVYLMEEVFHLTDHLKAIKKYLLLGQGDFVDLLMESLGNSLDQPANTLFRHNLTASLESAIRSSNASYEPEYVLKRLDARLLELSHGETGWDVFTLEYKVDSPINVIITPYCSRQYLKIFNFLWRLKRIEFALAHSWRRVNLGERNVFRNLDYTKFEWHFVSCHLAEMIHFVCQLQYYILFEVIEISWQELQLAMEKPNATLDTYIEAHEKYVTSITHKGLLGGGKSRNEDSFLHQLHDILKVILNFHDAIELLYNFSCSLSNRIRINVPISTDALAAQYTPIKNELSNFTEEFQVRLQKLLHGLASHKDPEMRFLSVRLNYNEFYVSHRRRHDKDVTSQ
Description: cross-linking; cross-linking mass spectrometry of purified MGM holocomplex (from coexpression) with EDC/Sulfo-NHS, 1:2:4.4 (w/w/w), 90 min, 18°C, 40 mM K-HEPES, 300 mM NaCl, 1 mM MgCl2 pH 7.5. The following applies: both partners purified.

For the data set “Alp4 (untagged)”, the target named is B5. The description is as above. The note with it: both partners purified.
Data set [2] deals with the molecule itself. Description: glycerol density-gradient centrifugation; 10-30% glycerol density gradient in HB100, 55,000 rpm, 4°C, 45 or 80 min; one affinity-purified complex alone, 100 μL at 1 mg/mL; S values against marker proteins.
Data set [3] concerns the molecule itself. Description: SEC-MALS; 100 μL of 1.98 mg/mL Mzt1 on Superdex-75 10/300 GL in 100 mM Tris, 50 mM NaCl, pH 7.5, 22°C.
Data set [4] deals with T1, Alp6-MBP. Description: pull-down; amylose resin purification via Alp6-MBP from lysates of High Five cells coexpressing Alp6-MBP, Alp4 and Gtb1, with or without Mzt1-6xHis; HB100 buffer (40 mM K-HEPES, 100 mM KCl, 1 mM EGTA, 1 mM MgCl2, 0.1 mM GTP, 1 mM DTT pH 7.5), overnight 4°C, maltose elution, SDS-PAGE. The following applies: partners not purified.

B1: 6xHis-Mto1[bonsai] (domain or fragment, S. pombe, UniProt O94488 131-549, looked up)
chain: TTDDEQLSPVLTANQGFQSQEQYEEDSYNNYDYTSDPSSPNYISSSLDQLPHLDDEDDLQLTPIKEERNYLHSQDAPTTNALSKKISDILIPASAMKDLKDRKNALAKEFEESQPGSSLTLKEQANVIDNLRKEVFGLKLKCYFLYDQLNKFHDQEVQDIMKQNIDLKTLTMELQRAVAGYEKKISGLESRIKPDQSFNLSTPSPAPSNLITLQSRYSQALSELETTKRAFAALRKEKSKKTNYSVGAYNEDRNVLSNMLDNERREKEALLQELESLRVQLSKKVPMPAKNTDERVIETLQRSNELLRMDISMQNEALLLRKQENDRLVKQVEELTVALNSGKMNAIVEAESSKNELWDSMMVSRMKTQEQSIELTRLYKQLQDIEEDYENKLMRMEQQWREDVDQLQEYVEEITQELQ
notes: Mto1 of S. pombe (CM1-domain protein), amino acids 131-549; lacks residues 1-130 and 550-1,115; also called Mto1(131-549); source: High Five insect cells (MultiBac baculovirus), coexpressed with Mto2; in lysate, and co-purified in complexes; not shown: 6xHis, N-terminal, kept
For B1, the binding result in the data set with Alp6-MBP [1] and with Alp4 (untagged) was “binds” each time.

B2: Mto1/2[bonsai] complex (complex, S. pombe)
chain 1: TTDDEQLSPVLTANQGFQSQEQYEEDSYNNYDYTSDPSSPNYISSSLDQLPHLDDEDDLQLTPIKEERNYLHSQDAPTTNALSKKISDILIPASAMKDLKDRKNALAKEFEESQPGSSLTLKEQANVIDNLRKEVFGLKLKCYFLYDQLNKFHDQEVQDIMKQNIDLKTLTMELQRAVAGYEKKISGLESRIKPDQSFNLSTPSPAPSNLITLQSRYSQALSELETTKRAFAALRKEKSKKTNYSVGAYNEDRNVLSNMLDNERREKEALLQELESLRVQLSKKVPMPAKNTDERVIETLQRSNELLRMDISMQNEALLLRKQENDRLVKQVEELTVALNSGKMNAIVEAESSKNELWDSMMVSRMKTQEQSIELTRLYKQLQDIEEDYENKLMRMEQQWREDVDQLQEYVEEITQELQ
chain 2: MSEHNYQSDREVAEDPFLNYEASANQLSSNSRESTPRGSPWRAGMRSASLMTEPLEDSMYSDNNYLDNGVSFTKDENPLYSPSWPSLADANVNSMKSNNAIQEHKAAKFVSEKSLEKVSTADNNLVLQELENLRERLNQVELQLSERPSSYLGYHNNLSPYRSPNSYPSLLPSTHSPHSPAPLSTMQTALMRLRTYHPSPIILKPVEQAVNHAITLVNTSPSSVVDALCRSLAELCLGLVQEAIDASILSQQESSNSLDLVRHTPPLNYTSSVDSSPQRMASDSYGRPSLHLNDPFPSVDLQSNELSHHNVRTTLFSDDSRFHSKIHTHSTPPSQMYSAASHFRYRSDPSTRHVSNSTNKSSLHPSPTSLRVAHPIIPQRASPASQSFPSLQDTPSP
notes: Mto1 of S. pombe, amino acids 131-549 (Mto1[bonsai]); as m7; Mto2 of S. pombe; as m8; Copy numbers of the two chains in the complex are not measured here; also called 6xHis-Mto1/2[bonsai]; source: High Five insect cells (MultiBac baculovirus); coexpressed in lysate, or purified (ammonium sulfate, Ni2+ Fractogel, Superose 6); not shown: 6xHis, N-terminal, kept
As to B2, the binding result in data set [2] was “binds”.

B3: Mzt1-6xHis (natural protein, S. pombe, UniProt P0CF96 1-64, looked up)
chain: MSESTKETIEVLYEIGTLLGTELDKTTLSLCISLCENNVHPEAIAQIIREIRMAQEQTVDTEPS
notes: Mzt1 of S. pombe; also called MOZART1 homolog; source: High Five insect cells (MultiBac baculovirus); coexpressed in lysate, co-purified in complexes, or purified alone (Ni2+ IMAC, Superdex 75); not shown: 6xHis, C-terminal, kept
For the molecule B3, the stoichiometry N – broadly, the number of molecules, sites or subunits per partner or assembly – in data set [3] was determined as 2.

B4: γ-tubulin (Gtb1), untagged (natural protein, S. pombe, UniProt P25295 1-446, looked up)
chain: MGREIITLQAGQCGNQIGSQFWQQLCLEHGIGPDGTLESFATEGVDRKDVFFYQSDDTRYIPRAILIDLEPRVVNNILSDTYGSLYNPENILITKNGGGAGNNWANGYSHAERIFEDIMDMIDREADGSDSLEGFSLLHSIAGGTGSGLGSFLLERLNDRYPKKIIQTYSVFPNSQSVSDVVVQPYNSLLALKRLTLNADSVVVLDNAALAHIAADRLHTQNPTFHQQNQLVSTVMSASTTTLRYPGYMNNDLVSIIASLIPSPRCHFLLTSYTPFTNQQVEEAKAIRKTTVLDVMRRLLLPKNQMVSVNPSKKSCFISILDIIQGEADPADVHKSLLRIRERRYASFIPWGPASIQVALSKKSPYIKTNHRVSGLMLANHTSIASLFKRTLDQYDRLRKRNAFLEQYKKEAIFEDDLNEFDSSRDVVADLINEYEACEDPNYLSL
notes: γ-tubulin Gtb1 of S. pombe; source: High Five insect cells (MultiBac baculovirus), coexpressed with partners; in lysate, and co-purified in complexes
Turning to B4, in the data set with Alp6-MBP [4], the binding result is “binds”. Same read-out and setting: the value for B5 was “binds”.
